Laboratory results reported in PMC7545093.

Biological target: Vibrio cholerae type IVa pilus secretin PilQ, N-terminally deca-histidine tagged (Vibrio cholerae)
Experiment: cryo-EM structure

Work on “Vibrio cholerae type IVa pilus secretin PilQ, N-terminally deca-histidine tagged (natural protein)” yielded a stoichiometry N of 14.
